Experiment [1] has as its target T1, full length TGF-beta 1 including the latency associated peptide (human, UniProt P01137 30-390).
T1 construct: also called latent TGF-beta 1; human Latency-associated Peptide and TGF-beta 1
The experiment is described as follows: analytical gel filtration. (In general: Size exclusion chromatography separates by hydrodynamic size, large species first.)

For experiment [2], the target named is T2, mature human TGF-beta 1 (human, UniProt P01137 279-390). The experiment is described as follows: cell-based or functional assay.
The target in experiment [3] is T3, mature human TGF-beta 2 (human, UniProt P61812 303-414).
T3 sequence: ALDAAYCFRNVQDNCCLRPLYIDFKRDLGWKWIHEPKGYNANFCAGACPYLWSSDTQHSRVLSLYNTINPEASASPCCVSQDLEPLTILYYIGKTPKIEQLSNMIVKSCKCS
The experiment in a line: cell-based or functional assay.

In experiment [4] the target is T4, mature human TGF-beta 3 (human, UniProt P10600 301-412).
T4 sequence: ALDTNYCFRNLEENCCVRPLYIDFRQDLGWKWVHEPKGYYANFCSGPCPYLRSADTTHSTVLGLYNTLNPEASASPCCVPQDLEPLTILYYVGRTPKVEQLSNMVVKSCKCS
The experiment in a line: cell-based or functional assay.

For experiment [5], the target named is TGF-beta produced and activated by BxPC3 cells. The experiment in a line: cell-based or functional assay.
For experiment [6], the target named is T2, mature human TGF-beta 1. The experiment in a line: SPR Biacore T200, human TGF-beta amine-coupled (~20 RU), E. coli derived Fab as analyte; heterogeneous fit, component 1 (KD1; believed occluded). Here is the method: (§1) Human TGF-β isoforms 1, 2, and 3 (Peprotech) were immobilised on CMS Series S chip via amine coupling chemistry on Flowcell 2, 3 and 4 (respectively) to a level of approximately 20 RU. HBS-EP buffer (10 mM HEPES pH 7.4, 0.15 M NaCl, 3 mM EDTA, 0.05% Surfactant P20, GE Healthcare) was used as the running buffer. […] The surface was regenerated by 2×10 μL injection of 10 mM HCl at a flowrate of 10 uL/min.
(§2) Background subtraction binding curves were analysed using the T200 evaluation software (version 1.0; GE Healthcare) following standard procedures. Kinetic parameters were determined using heterogeneous fitting algorithm with RI=0), as described in Example 3, and the values are provided in Table 4.
A general note: SPR reads the build-up and loss of mass on a sensor chip optically.

Experiment [7] has as its target T3, mature human TGF-beta 2. The description is as above. Here is the method: as §1, §2
Experiment [8] has as its target T4, mature human TGF-beta 3. The description is as above. Here is the method:
as §1, §2

Experiment [9] has as its target T2, mature human TGF-beta 1. The experiment in a line: SPR Biacore T200, human TGF-beta amine-coupled (~20 RU), E. coli derived Fab as analyte; heterogeneous fit, component 1 (ka1; believed occluded). The procedure: as §1, §2
Experiment [10] has as its target T3, mature human TGF-beta 2. The experiment is described as above. Here is the method:
as §1, §2

Experiment [11] concerns the target T4, mature human TGF-beta 3. Described as above. The procedure: as §1, §2
The target in experiment [12] is T2, mature human TGF-beta 1. The experiment is described as follows: SPR Biacore T200, human TGF-beta amine-coupled (~20 RU), E. coli derived Fab as analyte; heterogeneous fit, component 1 (kd1; believed occluded). The procedure:
as §1, §2

For experiment [13], the target named is T3, mature human TGF-beta 2. The experiment is described as above. Here is the method:
as §1, §2

For experiment [14], the target named is T4, mature human TGF-beta 3. The experiment is described as above. The procedure:
as §1, §2

Experiment [15] deals with T2, mature human TGF-beta 1. The experiment in a line: SPR Biacore T200, human TGF-beta amine-coupled (~20 RU), E. coli derived Fab as analyte; heterogeneous fit, component 2 (KD2; believed unoccluded). Here is the method: as §1, §2
In experiment [16] the target is T3, mature human TGF-beta 2. The experiment is described as above. The procedure:
as §1, §2

Experiment [17] concerns the target T4, mature human TGF-beta 3. The description is as above. The procedure: as §1, §2
Experiment [18] deals with T2, mature human TGF-beta 1. The experiment is described as follows: SPR Biacore T200, human TGF-beta amine-coupled (~20 RU), E. coli derived Fab as analyte; heterogeneous fit, component 2 (ka2; believed unoccluded). The procedure: as §1, §2
In experiment [19] the target is T3, mature human TGF-beta 2. The experiment is described as above. The procedure:
as §1, §2

For experiment [20], the target named is T4, mature human TGF-beta 3. Described as above. The procedure: as §1, §2
The target in experiment [21] is T3, mature human TGF-beta 2. The experiment in a line: SPR Biacore T200, human TGF-beta amine-coupled (~20 RU), E. coli derived Fab as analyte; heterogeneous fit, component 2 (kd2; believed unoccluded). The procedure:
as §1, §2

T2 sequence (P01137 279-390 limits assumed): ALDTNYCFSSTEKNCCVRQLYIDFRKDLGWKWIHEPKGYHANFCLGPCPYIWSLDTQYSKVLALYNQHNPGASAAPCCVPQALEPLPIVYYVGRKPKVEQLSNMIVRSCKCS
T1 sequence (P01137 30-390 limits assumed): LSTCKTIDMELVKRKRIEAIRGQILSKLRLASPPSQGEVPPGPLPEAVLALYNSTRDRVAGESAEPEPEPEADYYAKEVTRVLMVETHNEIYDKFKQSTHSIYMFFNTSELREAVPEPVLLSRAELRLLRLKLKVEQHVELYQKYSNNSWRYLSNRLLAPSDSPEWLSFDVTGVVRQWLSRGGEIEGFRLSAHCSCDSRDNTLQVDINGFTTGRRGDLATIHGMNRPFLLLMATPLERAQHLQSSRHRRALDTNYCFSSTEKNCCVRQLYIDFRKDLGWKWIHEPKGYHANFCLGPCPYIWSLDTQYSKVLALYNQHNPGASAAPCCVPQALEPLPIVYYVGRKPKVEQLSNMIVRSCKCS

B1: humanised antibody 4856 Fab graft gL3gH13 (Fab, V domains shown)
VH: EVQLVESGGGLVKPGGSLRLSCAASGFSLSSYDMSWVRQAPGKGLEWIGIIYGGSGSTWYASWAKGRFTISRDSAKNSVYLQMNSLRAEDTAVYYCARGRDAGAGGSRNGYSLWGQGTLVTVSS
VL: AYDMTQSPSTLSASVGDRVTITCQASESIYSGLAWYQQKPGKAPKLLIYAASDLASGVPSRFSGSGSGTEYTLTISSLQPDDFATYYCQQTWTDGGIDNPFGGGTKVEIKR
notes: Human gamma-1 CH1 (G1m17) and human C-kappa (K1m3); also called 4856gL3gH13
For the molecule B1, the binding result in experiment [1] is “no binding”. Besides, the results for the “Geometric mean IC50, HEK-Blue TGF-beta reporter gene assay” value with mature human TGF-beta 1 [2], in the experiment with mature human TGF-beta 2 [3] and with mature human TGF-beta 3 [4] were 0.074 nM, 0.01 nM and 0.475 nM, respectively. For the same molecule, in experiment [5], the “Geometric mean IC50, BxPC3 and HEK-Blue TGF-beta reporter gene co-culture assay” value came out at 3.95 nM. Moreover, the Kd – broadly, the concentration at which binding is half-saturated – with mature human TGF-beta 1 [6] was 9.48 nM; in the experiment with mature human TGF-beta 2 [7], 3.67 nM; with mature human TGF-beta 3 [8], 15.7 nM; in the experiment with mature human TGF-beta 1 [15], 0.0808 nM; with mature human TGF-beta 2 [16], 0.196 nM; with mature human TGF-beta 3 [17] it was 1.72 nM. Further, the kon (as a rule, the second-order rate constant of association) worked out at 74900 M⁻¹ s⁻¹ with mature human TGF-beta 1 [9]; 57700 M⁻¹ s⁻¹ with mature human TGF-beta 2 [10]; 93200 M⁻¹ s⁻¹ with mature human TGF-beta 3 [11]; 704000 M⁻¹ s⁻¹ in the experiment with mature human TGF-beta 1 [18]; 904000 M⁻¹ s⁻¹ with mature human TGF-beta 2 [19]; 2e+06 M⁻¹ s⁻¹ in the experiment with mature human TGF-beta 3 [20]. Besides, the koff (commonly a measure of how fast the partners let go of each other) with mature human TGF-beta 1 [12] was determined as 0.000709 s⁻¹; with mature human TGF-beta 2 [13], 0.000211 s⁻¹; with mature human TGF-beta 3 [14] it was 0.00146 s⁻¹; in the experiment with mature human TGF-beta 2 [21], 0.00017 s⁻¹.

The record behind these values is patent US20200407436A1 (published 2020).
